From patent US6972319B1, “Pituitary adenylate cyclase activating peptide (PACAP)receptor 3 (R3) agonists and their pharmacological methods of use” (priority 1999, dated 2005) come the findings set out here.

The target in the assay is T1, PACAP-R3 (human, UniProt P41587 24-438).
T1 sequence (looked up): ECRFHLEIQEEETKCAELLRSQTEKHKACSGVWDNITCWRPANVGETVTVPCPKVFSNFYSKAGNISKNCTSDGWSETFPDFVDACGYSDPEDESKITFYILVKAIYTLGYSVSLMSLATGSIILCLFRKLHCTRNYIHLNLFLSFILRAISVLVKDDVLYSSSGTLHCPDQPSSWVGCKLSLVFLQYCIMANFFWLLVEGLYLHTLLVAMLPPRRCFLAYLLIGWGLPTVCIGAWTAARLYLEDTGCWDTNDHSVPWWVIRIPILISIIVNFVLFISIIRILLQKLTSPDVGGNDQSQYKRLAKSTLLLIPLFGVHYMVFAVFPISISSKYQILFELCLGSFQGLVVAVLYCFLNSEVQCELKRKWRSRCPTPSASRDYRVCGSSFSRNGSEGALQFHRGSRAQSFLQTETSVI
The assay is described as follows: cell-based or functional assay.

No end group written: not given here.

With HSDGIFTDSYSRYRKQMAVKKYLKAVL-NH2 [PAC24], the “R3 EC50, nM (cAMP SPA)” value was 0.2 nM and the “R3 Selectivity” value is 1.5 ratio.
For HSDGIFTDSYSEYRKQMAVKKYLAAVL-NH2 [PAC12] the same measures were 3 nM and 50 ratio.
For HSDGIFTDSYSRYRKQMAVKKYLAAKL-NH2 [PAC26] the same measures were 0.3 nM and 1 ratio.
With HSDGIFTDSYSRYRKQMAVKEYLAAVL-NH2 [PAC21], the “R3 EC50, nM (cAMP SPA)” value worked out at 0.24 nM and the “R3 Selectivity” value is 10 ratio.
For HSDAVFTDNYTRLRKQMAGKKYLNSIKNRI [rR3P175] the same measures were 2.2 nM and 180 ratio.
For HSDGIFTDSYSRYRKQMAVKKYLAKVL-NH2 [PAC25], in that order: 0.04 nM and 3 ratio.
For HSDGIFTDSYSRYRKQMAVKKKLAAVL-NH2 [PAC22], in that order: 15 nM and 0.1 ratio.
For the molecule HSDGIFTDSYSRYRKQMAKKKYLAAVL-NH2 [PAC19], the “R3 EC50, nM (cAMP SPA)” value came out at 0.4 nM and the “R3 Selectivity” value was determined as 20 ratio.
For HSDGIFTDSYSRYEKQMAVKKYLAAVL-NH2 [PAC14], in that order: 1.6 nM and 70 ratio.
For HSDGIFTDSYSRYRKKMAVKKYLAAVL-NH2 [PAC16], in that order: 0.2 nM and 1 ratio.
As for HSDGIFTDSYSRKRKQMAVKKYLAAVL-NH2 [PAC13], the “R3 EC50, nM (cAMP SPA)” value came to 0.5 nM and the “R3 Selectivity” value was 6 ratio.
In the case of HSDGIFTDSYSRYREQMAVKKYLAAVL-NH2 [PAC15], the “R3 EC50, nM (cAMP SPA)” value turned out to be 0.2 nM and the “R3 Selectivity” value was found to be 12 ratio.
For HSDGIFTDSYSRYRKQMAVKKYKAAVL-NH2 [PAC23], in that order: 13 nM and 13 ratio.
For HSDAVFTDNYTRLRKQMAKKKYLNSIKNRI [rR3P176], in that order: 2 nM and 150 ratio.
Take HSDGIFTDSYSRYRKQKAVKKYLAAVL-NH2 [PAC17]: the “R3 EC50, nM (cAMP SPA)” value was 0.15 nM and the “R3 Selectivity” value was determined as 1.6 ratio.
For HSDGIFTDSYSRYRKQMAVKKYLAAVK-NH2 [PAC27], in that order: 1.1 nM and 1.4 ratio.
Consider HSDAVFTDNYTRLRKQMAAKKYLNSIKNRI [rR3P174], for which the “R3 EC50, nM (cAMP SPA)” value worked out at 0.2 nM and the “R3 Selectivity” value came out at 90 ratio.
For the molecule HSDGIFTDSYSRYRKQMAVEKYLAAVL-NH2 [PAC20], the “R3 EC50, nM (cAMP SPA)” value turned out to be 0.7 nM and the “R3 Selectivity” value amounted to 30 ratio.
